Literature values, collected in publication PMC3128988.

Target: CD47 (Homo sapiens) (UniProt Q08722)
Chain of UniProt Q08722 (Q08722 19-323): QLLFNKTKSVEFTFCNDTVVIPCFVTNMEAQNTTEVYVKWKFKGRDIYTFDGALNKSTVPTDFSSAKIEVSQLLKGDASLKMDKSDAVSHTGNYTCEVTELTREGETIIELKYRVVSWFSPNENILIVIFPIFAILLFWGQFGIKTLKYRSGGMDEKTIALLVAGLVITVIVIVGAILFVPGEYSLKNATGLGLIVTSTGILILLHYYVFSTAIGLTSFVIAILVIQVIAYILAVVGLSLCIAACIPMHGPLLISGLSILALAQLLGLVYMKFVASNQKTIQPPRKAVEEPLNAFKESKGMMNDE

Kd: 1000 nM
Substance: SIRPα (from UniProt P78324)
